Data from patent KR20130140557A (dated 2013).

Experiments:
[1] = biological target: T1, IL-6R-Fc 항원 (IL-6R full domain 단백질) (human, UniProt P08887 20-365); assay: mono phage ELISA, antigen coated 100 ng/well, anti-M13-HRP
T1 construct: domain: IL-6R full domain; Expressed transiently in HEK293E and purified from the supernatant; also called IL-6R 항원; not shown: Fc part from expression vector pYK 604
T1 sequence (looked up): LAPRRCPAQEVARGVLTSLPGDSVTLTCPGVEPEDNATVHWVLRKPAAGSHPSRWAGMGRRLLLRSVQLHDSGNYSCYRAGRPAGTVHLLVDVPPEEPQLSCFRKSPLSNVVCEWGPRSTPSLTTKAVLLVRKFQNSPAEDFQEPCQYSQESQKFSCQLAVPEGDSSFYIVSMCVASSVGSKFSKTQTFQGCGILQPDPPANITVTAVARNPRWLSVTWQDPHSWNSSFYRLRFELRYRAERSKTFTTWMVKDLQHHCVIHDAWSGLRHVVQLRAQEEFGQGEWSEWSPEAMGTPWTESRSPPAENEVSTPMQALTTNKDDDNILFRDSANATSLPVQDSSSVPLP

a-Myc = assay: mono phage ELISA, a-Myc coated 100 ng/well, anti-M13-HRP
[2] = biological target: T1, IL-6R-Fc 항원 (IL-6R full domain 단백질); assay: mono phage ELISA, ratio of OD on IL-6R full to OD on a-myc
Fc = assay: mono phage ELISA, Fc coated 100 ng/well, anti-M13-HRP
[3] = biological target: T1, IL-6R-Fc 항원 (IL-6R full domain 단백질); assay: ELISA (summary table; same value as the 3rd table)
[4] = biological target: T1, IL-6R-Fc 항원 (IL-6R full domain 단백질); assay: ELISA titration on coated IL-6R, anti-Fab-HRP
[5] = biological target: T1, IL-6R-Fc 항원 (IL-6R full domain 단백질); assay: ELISA, coated IL-6R 100 ng/well, anti-Fab-HRP

| Binder | OD 490 nm (IL-6R full) [1] [OD490] | OD 490 nm (a-myc) (a-Myc) [OD490] | Ratio (IL-6R full / a-myc) [2] | OD 490 nm (Fc) (Fc) [OD490] | Kd [3] [nM] | Kd [4] [nM] | OD 490 nm at 0.02441 nM antibody [5] [OD490] | OD 490 nm at 0.04883 nM antibody [5] [OD490] | OD 490 nm at 0.09766 nM antibody [5] [OD490] | OD 490 nm at 0.19531 nM antibody [5] [OD490] | OD 490 nm at 0.39063 nM antibody [5] [OD490] | OD 490 nm at 0.78125 nM antibody [5] [OD490] | OD 490 nm at 1.5625 nM antibody [5] [OD490] | OD 490 nm at 3.125 nM antibody [5] [OD490] | OD 490 nm at 6.25 nM antibody [5] [OD490] | OD 490 nm at 12.5 nM antibody [5] [OD490] | OD 490 nm at 25 nM antibody [5] [OD490] | OD 490 nm at 50 nM antibody [5] [OD490] |
| --- | --- | --- | --- | --- | --- | --- | --- | --- | --- | --- | --- | --- | --- | --- | --- | --- | --- | --- |
| 모노 파아지 클론 F2 (scFv on phage) (scFv) DVHSQVQLVESGAEVKKPGASVKVSCKASGYTFTNYYMHWVRQAPGQGLEWMGIINPSGGNTGYAQKFQGRVTMTRDMSTSTAYMELSSLRSEDTAVYYCARGLPWGENGLDVWGQGTTVTVSSDVHSQLVLTQPSSVSGAPGQTVTISCTGSSSNIGAGYDVHWYQQLPGTAPKVLIYGDSDRPSGVPDRFSGSKSATSASLAITGLQAEDEADYYCQSYDSSLSAYVFGTGTKVTVL | 2.86 | 0.287 | 9.96 | 0.0405 | – | – | – | – | – | – | – | – | – | – | – | – | – | – |
| 항 IL-6R 단클론 항체 A7 (IgG) (antibody, V domains shown, Phage clone converted to whole IgG) VH: QMQLVESGGGLVQPGTSLRLSCAASGFKFEDYAMHWVRQAPGKGLEWVSGVSWNSGTIAYVDSVKGRFTISRDNAKNSLYLQMNSLRAEDTAVYYCARDFTYFYESSGYYAFDLWGQGTMVTVSS VL: SQLVLTQPPSVSGAPGQRVTISCTGTNSNIGAGYDVHWYQQVPGTTPKLLIYGNTNRPSGVPDRFSGSKSGTSASLAITGLQAEDGGDYYCQSFDSSLTGSVFGTGTKVTVL | – | – | – | – | 2.3 | 2.3 | 0.514 | 0.498 | 0.497 | 0.546 | 0.618 | 0.782 | 1.17 | 1.64 | 2.13 | 2.58 | 2.84 | 3.1 |
| 모노 파아지 클론 B10 (scFv on phage) (scFv) DVHSQVQLVESGGGLVQPGGSLRLSCAASGFIFDDYAMFWVRQVPGKGLEWVAGINWNGNGIGYGDSVRGRFIISRDNARNSLDLQMNSLRAEDTAVYYCARPSLYGGNSEFDLWGQGTLVTVSSDVHSQLVLTQPPSVSGAPGQTVTISCTGPTIGAGYDVHWYQQLPGAAPKLLIYGNLNRPSGVPDRFSGSKSGTSASLAITDLQAEDEADYYCHTYDSSLSGSWVFGGGTKLTVL | 2.1 | 0.113 | 18.6 | 0.0406 | – | – | – | – | – | – | – | – | – | – | – | – | – | – |
| 항 IL-6R 단클론 항체 F2 (IgG) (antibody, V domains shown, Phage clone converted to whole IgG) VH: QVQLVESGAEVKKPGASVKVSCKASGYTFTNYYMHWVRQAPGQGLEWMGIINPSGGNTGYAQKFQGRVTMTRDMSTSTAYMELSSLRSEDTAVYYCARGLPWGENGLDVWGQGTTVTVSS VL: SQLVLTQPSSVSGAPGQTVTISCTGSSSNIGAGYDVHWYQQLPGTAPKVLIYGDSDRPSGVPDRFSGSKSATSASLAITGLQAEDEADYYCQSYDSSLSAYVFGTGTKVTVL | – | – | – | – | 0.35 | 0.35 | 0.535 | 0.584 | 0.743 | 1.01 | 1.41 | 1.9 | 2.43 | 2.72 | 2.71 | 2.92 | 2.89 | 2.99 |
| 모노 파아지 클론 D2 (scFv on phage) (scFv) DVHSQVQLVESGAEVKKPGSSVKVSCKGSGDTFPNYAINWVRQAPGQGPEWMGRIIPMLGTSDYAEKFQGRVTITADKSTNTAYMGLNSLRSEDTAVYYCVKGPRYYGTDSYYLEKWGQGTMVTVSSDVHSQLVLTQPPSVSGAPGQTVTISCTGPTIGAGYDVHWYQQLPGAAPKLLIYGNLNRPSGVPDRFSGSKSGTSASLAITDLQAEDEADYYCHTYDSSLSGSWVFGGGTKLTVL | 2.34 | 0.303 | 7.71 | 0.0415 | – | – | – | – | – | – | – | – | – | – | – | – | – | – |
| 모노 파아지 클론 A7 (scFv on phage) (scFv) DVHSQMQLVESGGGLVQPGTSLRLSCAASGFKFEDYAMHWVRQAPGKGLEWVSGVSWNSGTIAYVDSVKGRFTISRDNAKNSLYLQMNSLRAEDTAVYYCARDFTYFYESSGYYAFDLWGQGTMVTVSSDVHSQLVLTQPPSVSGAPGQRVTISCTGTNSNIGAGYDVHWYQQVPGTTPKLLIYGNTNRPSGVPDRFSGSKSGTSASLAITGLQAEDGGDYYCQSFDSSLTGSVFGTGTKVTVL | 2.48 | 0.0797 | 31.1 | 0.0421 | – | – | – | – | – | – | – | – | – | – | – | – | – | – |
| 항 IL-6R 단클론 항체 B10 (IgG) (antibody, V domains shown, Phage clone converted to whole IgG) VH: QVQLVESGGGLVQPGGSLRLSCAASGFIFDDYAMFWVRQVPGKGLEWVAGINWNGNGIGYGDSVRGRFIISRDNARNSLDLQMNSLRAEDTAVYYCARPSLYGGNSEFDLWGQGTLVTVSS VL: SQLVLTQPPSVSGAPGQTVTISCTGPTIGAGYDVHWYQQLPGAAPKLLIYGNLNRPSGVPDRFSGSKSGTSASLAITDLQAEDEADYYCHTYDSSLSGSWVFGGGTKLTVL | – | – | – | – | 4.3 | 4.3 | 0.468 | 0.451 | 0.462 | 0.429 | 0.476 | 0.5 | 0.607 | 0.761 | 1.04 | 1.39 | 1.78 | 2.09 |
| 항 IL-6R 단클론 항체 D2 (IgG) (antibody, V domains shown, Phage clone converted to whole IgG) VH: QVQLVESGAEVKKPGSSVKVSCKGSGDTFPNYAINWVRQAPGQGPEWMGRIIPMLGTSDYAEKFQGRVTITADKSTNTAYMGLNSLRSEDTAVYYCVKGPRYYGTDSYYLEKWGQGTMVTVSS VL: SQLVLTQPPSVSGAPGQTVTISCTGPTIGAGYDVHWYQQLPGAAPKLLIYGNLNRPSGVPDRFSGSKSGTSASLAITDLQAEDEADYYCHTYDSSLSGSWVFGGGTKLTVL | – | – | – | – | 7.5 | 7.5 | 0.449 | 0.451 | 0.45 | 0.469 | 0.473 | 0.479 | 0.584 | 0.719 | 0.981 | 1.47 | 1.94 | 2.38 |
